The values that follow come from patent publication US20130236458A1 (AbbVie / Abbott, published 2013).

Assay [1] concerns the target T1, Recombinant Human IL-13 (human, UniProt P35225 35-146, limits assumed). Put plainly: cell-based or functional assay.
For assay [2], the target named is T1, Recombinant Human IL-13. Kind of assay: SPR (Biacore). A digest of the protocol:
(§1)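 Antibodies or DVD-Ig captured on anti-mouse IgG (Fcγ) CM5 surface; antigen injected at 10–200 nM in HBS-EP, pH 7.4, 25 °C, 25 µL/min. kon and koff from global 1:1 Langmuir fit; KD = koff/kon.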

The target in assay [3] is T2, Recombinant Human IL-17 (human, UniProt Q16552 20-155, limits assumed).
T2 construct: bought reagent; also called IL-17A
T2 sequence (looked up): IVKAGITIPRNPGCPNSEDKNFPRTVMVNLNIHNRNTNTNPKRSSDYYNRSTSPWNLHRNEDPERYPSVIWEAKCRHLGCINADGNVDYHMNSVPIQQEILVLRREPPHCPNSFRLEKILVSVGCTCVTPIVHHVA
Put plainly: SPR (Biacore). A digest of the protocol:
as §1

For assay [4], the target named is T2, Recombinant Human IL-17. Kind of assay: cell-based or functional assay.

T1 sequence (P35225 35-146 limits assumed): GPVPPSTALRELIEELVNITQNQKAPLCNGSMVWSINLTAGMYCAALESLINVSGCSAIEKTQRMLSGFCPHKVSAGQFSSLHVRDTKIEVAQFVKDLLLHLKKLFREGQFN

B1: DVD2164 (bispecific antibody)
VH: EVTLRESGPGLVKPTQTLTLTCTLYGFSLSTSDMGVDWIRQPPGKGLEWLAHIWWDDVKRYNPALKSRLTISKDTSKNQVVLKLTSVDPVDTATYYCARTVSSGYIYYAMDYWGQGTLVTVSSASTKGPSVFPLAPEVQLVQSGAEVKKPGESVKISCKASGGSFRSYGISWVRQAPGQGLEWMGGITHFFGITDYAQKFQGRVTITADESTTTAYMELSGLTSDDTAVYYCAREPNDFWNGYYDTHDFDSWGQGTTVTVSS
VL: DIQMTQSPSSLSASVGDRVTISCRASQDIRNYLNWYQQKPGKAPKLLIFYTSKLHSGVPSRFSGSGSGTDYTLTISSLQPEDIATYYCQQGLTPPLTFGGGTKVEIKRTVAAPEIVLTQSPDFQSVTPKEKVTITCRASQNIGSELHWYQQKPDQSPKLLIKYASHSISGVPSRFSGSGSGTDFTLTINGLEAEDAATYYCHQSDTLPHTFGQGTKVDIKR
notes: DVD-Ig; also called DVD2164H; DVD2164L
Turning to B1, in assay [1], the “N-Terminal VD IL13 Neutralization Assay IC50” value turned out to be 0.146 nM. Also, in assay [2], the Kd worked out at 0.11 nM, the koff is 0.00017 s⁻¹ and the kon was 1.5e+06 M⁻¹ s⁻¹. For the same molecule, in assay [3], the Kd was found to be 1.7 nM, the koff was 3.1e-05 s⁻¹ and the kon worked out at 18000 M⁻¹ s⁻¹. Further, the “C-Terminal VD IL17 Neutralization Assay IC50” value in assay [4] came to 0.135 nM.

B2: DVD2173 (bispecific antibody)
VH: EVQLVQSGAEVKKPGSSVKVSCKASGGSFGGYGIGWVRQAPGQGLEWMGGITPFFGFADYAQKFQGRVTITADESTTTAYMELSGLTSDDTAVYYCARDPNEFWNGYYSTHDFDSWGQGTTVTVSSASTKGPEVQLVQSGAEVKKPGASVKVSCKASGYTFTTYGVSWVRQAPGQGLEWMGEIYPGNYNTYYNEKFRGRVTMTTDTSTSTAYMELRSLRSDDTAVYYCARWRTSYFSDYGYFDYWGQGTTVTVSS
VL: EIVLTQSPDFQSVTPKEKVTITCRASQDIGSELHWYQQKPDQPPKLLIKYASHSTSGVPSRFSGSGSGTDFTLTINGLEAEDAGTYYCHQTDSLPYTFGPGTKVDIKRTVAAPDVVMTQSPLSLPVTLGQPASISCRSSQSLVHSHGNTYLHWYQQRPGQSPRLLIYTVSNRFSGVPDRFSGSGSGTDFTLKISRVEAEDVGVYYCSQSTHVPYTFGGGTKVEIKR
notes: DVD-Ig; also called DVD2173H; DVD2173L
Regarding B2, the “C-Terminal VD IL13 Neutralization Assay IC50” value in assay [1] was determined as 2.14 nM. In assay [2], the Kd amounted to 0.12 nM, the koff came out at 3.7e-05 s⁻¹ and the kon is 310000 M⁻¹ s⁻¹. In assay [3], the Kd came to 0.0036 nM, the koff turned out to be 9e-06 s⁻¹ and the kon came out at 2.5e+06 M⁻¹ s⁻¹. Also, the “N-Terminal VD IL17 Neutralization Assay IC50” value in assay [4] is 0.008 nM.

B3: DVD2167 (bispecific antibody)
VH: EVQLVQSGAEVKKPGSSVKVSCKASGYTFTDYEIHWVRQAPGQGLEWMGVNDPESGGTFYNQKFDGRVTLTADESTSTAYMELSSLRSEDTAVYYCTRYSKWDSFDGMDYWGQGTTVTVSSASTKGPEVQLVQSGAEVKKPGASVKVSCKASGYTFTTYGVSWVRQAPGQGLEWMGEIYPGNYNTYYNEKFRGRVTMTTDTSTSTAYMELRSLRSDDTAVYYCARWRTSYFSDYGYFDYWGQGTTVTVSS
VL: DIQMTQSPSSLSASVGDRVTITCRASSGIISYIDWFQQKPGKAPKRLIYATFDLASGVPSRFSGSGSGTDYTLTISSLQPEDFATYYCRQVGSYPETFGQGTKLEIKRTVAAPDVVMTQSPLSLPVTLGQPASISCRSSQSLVHSHGNTYLHWYQQRPGQSPRLLIYTVSNRFSGVPDRFSGSGSGTDFTLKISRVEAEDVGVYYCSQSTHVPYTFGGGTKVEIKR
notes: DVD-Ig; also called DVD2167H; DVD2167L
As to B3, the “C-Terminal VD IL13 Neutralization Assay IC50” value in assay [1] was 1.7 nM. For the same molecule, in assay [2], the Kd was below 0.048 nM, the koff was below 1e-06 s⁻¹ and the on-rate (kon) is 21000 M⁻¹ s⁻¹. Also, in assay [3], the equilibrium dissociation constant (Kd) was below 0.00037 nM, the koff is below 1e-06 s⁻¹ and the on-rate constant (kon) was 2.7e+06 M⁻¹ s⁻¹. Also, in assay [4], the “N-Terminal VD IL17 Neutralization Assay IC50” value amounted to 0.0029 nM.

B4: DVD2171 (bispecific antibody)
VH: EVQLVQSGAEVKKPGSSVKVSCKASGYTFTDYEIHWVRQAPGQGLEWMGVNDPESGGTFYNQKFDGRVTLTADESTSTAYMELSSLRSEDTAVYYCTRYSKWDSFDGMDYWGQGTTVTVSSASTKGPSVFPLAPEVQLVQSGAEVKKPGASVKVSCKASGYTFTTYGVSWVRQAPGQGLEWMGEIYPGNYNTYYNEKFRGRVTMTTDTSTSTAYMELRSLRSDDTAVYYCARWRTSYFSDYGYFDYWGQGTTVTVSS
VL: B3 VL
notes: DVD-Ig; also called DVD2171H; DVD2171L
As for B4, the “C-Terminal VD IL13 Neutralization Assay IC50” value in assay [1] was determined as 0.506 nM. Besides, in assay [2], the Kd was below 0.005 nM, the koff is below 1e-06 s⁻¹ and the kon is 200000 M⁻¹ s⁻¹. Further, in assay [3], the Kd is 0.011 nM, the koff came out at 2.1e-05 s⁻¹ and the kon came to 1.9e+06 M⁻¹ s⁻¹. The “N-Terminal VD IL17 Neutralization Assay IC50” value in assay [4] came to 0.0011 nM.

B5: DVD2172 (bispecific antibody)
VH: EVQLVQSGAEVKKPGASVKVSCKASGYTFTTYGVSWVRQAPGQGLEWMGEIYPGNYNTYYNEKFRGRVTMTTDTSTSTAYMELRSLRSDDTAVYYCARWRTSYFSDYGYFDYWGQGTTVTVSSASTKGPEVQLVQSGAEVKKPGSSVKVSCKASGGSFGGYGIGWVRQAPGQGLEWMGGITPFFGFADYAQKFQGRVTITADESTTTAYMELSGLTSDDTAVYYCARDPNEFWNGYYSTHDFDSWGQGTTVTVSS
VL: DVVMTQSPLSLPVTLGQPASISCRSSQSLVHSHGNTYLHWYQQRPGQSPRLLIYTVSNRFSGVPDRFSGSGSGTDFTLKISRVEAEDVGVYYCSQSTHVPYTFGGGTKVEIKRTVAAPEIVLTQSPDFQSVTPKEKVTITCRASQDIGSELHWYQQKPDQPPKLLIKYASHSTSGVPSRFSGSGSGTDFTLTINGLEAEDAGTYYCHQTDSLPYTFGPGTKVDIKR
notes: DVD-Ig; also called DVD2172H; DVD2172L
On to B5, for which the “N-Terminal VD IL13 Neutralization Assay IC50” value in assay [1] worked out at 0.111 nM. Besides, in assay [2], the Kd was 0.033 nM, the koff worked out at 2.9e-05 s⁻¹ and the kon came to 890000 M⁻¹ s⁻¹. Also, in assay [3], the Kd turned out to be 26 nM, the koff was 0.00017 s⁻¹ and the kon was found to be 6800 M⁻¹ s⁻¹. Further, the “C-Terminal VD IL17 Neutralization Assay IC50” value in assay [4] was 0.678 nM.

B6: DVD2165 (bispecific antibody)
VH: EVQLVQSGAEVKKPGESVKISCKASGGSFRSYGISWVRQAPGQGLEWMGGITHFFGITDYAQKFQGRVTITADESTTTAYMELSGLTSDDTAVYYCAREPNDFWNGYYDTHDFDSWGQGTTVTVSSASTKGPSVFPLAPEVTLRESGPGLVKPTQTLTLTCTLYGFSLSTSDMGVDWIRQPPGKGLEWLAHIWWDDVKRYNPALKSRLTISKDTSKNQVVLKLTSVDPVDTATYYCARTVSSGYIYYAMDYWGQGTLVTVSS
VL: EIVLTQSPDFQSVTPKEKVTITCRASQNIGSELHWYQQKPDQSPKLLIKYASHSISGVPSRFSGSGSGTDFTLTINGLEAEDAATYYCHQSDTLPHTFGQGTKVDIKRTVAAPDIQMTQSPSSLSASVGDRVTISCRASQDIRNYLNWYQQKPGKAPKLLIFYTSKLHSGVPSRFSGSGSGTDYTLTISSLQPEDIATYYCQQGLTPPLTFGGGTKVEIKR
notes: DVD-Ig; also called DVD2165H; DVD2165L
For B6, in assay [1], the “C-Terminal VD IL13 Neutralization Assay IC50” value is 0.355 nM. Also, in assay [2], the Kd was 0.22 nM, the koff came to 5.7e-05 s⁻¹ and the kon turned out to be 260000 M⁻¹ s⁻¹. Moreover, in assay [3], the Kd is 0.014 nM, the koff stood at 3.2e-05 s⁻¹ and the kon worked out at 2.3e+06 M⁻¹ s⁻¹. Further, the “N-Terminal VD IL17 Neutralization Assay IC50” value in assay [4] turned out to be 0.0133 nM.

B7: DVD2166 (bispecific antibody)
VH: EVQLVQSGAEVKKPGASVKVSCKASGYTFTTYGVSWVRQAPGQGLEWMGEIYPGNYNTYYNEKFRGRVTMTTDTSTSTAYMELRSLRSDDTAVYYCARWRTSYFSDYGYFDYWGQGTTVTVSSASTKGPEVQLVQSGAEVKKPGSSVKVSCKASGYTFTDYEIHWVRQAPGQGLEWMGVNDPESGGTFYNQKFDGRVTLTADESTSTAYMELSSLRSEDTAVYYCTRYSKWDSFDGMDYWGQGTTVTVSS
VL: DVVMTQSPLSLPVTLGQPASISCRSSQSLVHSHGNTYLHWYQQRPGQSPRLLIYTVSNRFSGVPDRFSGSGSGTDFTLKISRVEAEDVGVYYCSQSTHVPYTFGGGTKVEIKRTVAAPDIQMTQSPSSLSASVGDRVTITCRASSGIISYIDWFQQKPGKAPKRLIYATFDLASGVPSRFSGSGSGTDYTLTISSLQPEDFATYYCRQVGSYPETFGQGTKLEIKR
notes: DVD-Ig; also called DVD2166H; DVD2166L
On to B7, for which the “N-Terminal VD IL13 Neutralization Assay IC50” value in assay [1] is 0.089 nM. In assay [2], the Kd is 0.034 nM, the koff was determined as 2.6e-05 s⁻¹ and the kon stood at 760000 M⁻¹ s⁻¹. In assay [3], the Kd turned out to be 0.075 nM, the koff worked out at 9.4e-06 s⁻¹ and the kon worked out at 130000 M⁻¹ s⁻¹. Moreover, the “C-Terminal VD IL17 Neutralization Assay IC50” value in assay [4] was 0.0164 nM.

B8: DVD2168 (bispecific antibody)
VH: B7 VH
VL: DVVMTQSPLSLPVTLGQPASISCRSSQSLVHSHGNTYLHWYQQRPGQSPRLLIYTVSNRFSGVPDRFSGSGSGTDFTLKISRVEAEDVGVYYCSQSTHVPYTFGGGTKVEIKRTVAAPSVFIFPPDIQMTQSPSSLSASVGDRVTITCRASSGIISYIDWFQQKPGKAPKRLIYATFDLASGVPSRFSGSGSGTDYTLTISSLQPEDFATYYCRQVGSYPETFGQGTKLEIKR
notes: DVD-Ig; also called DVD2168H; DVD2168L
Consider B8, for which the “N-Terminal VD IL13 Neutralization Assay IC50” value in assay [1] was determined as 0.119 nM. Moreover, in assay [2], the Kd was 0.054 nM, the koff stood at 3.7e-05 s⁻¹ and the kon is 680000 M⁻¹ s⁻¹. Besides, in assay [3], the Kd is below 0.0025 nM, the koff was below 1e-06 s⁻¹ and the kon came to 400000 M⁻¹ s⁻¹. Also, in assay [4], the “C-Terminal VD IL17 Neutralization Assay IC50” value was 0.0025 nM.
